The source of these data is patent US20180137234A1 (University of Washington, published 2018).

Data set [1] concerns the molecule itself. Kind of data set: X-ray crystal structure of the homodimer.
Data set [2] deals with the molecule itself. The experiment in a line: SEC-MALS and SAXS of the original construct. (Size exclusion chromatography separates by hydrodynamic size, large species first.)
Data set [3] deals with the molecule itself. Kind of data set: X-ray crystal structure of the homotrimer.

B1: ank1C2_1 (designed binder)
chain: SELGKRLIEAAENGNKDRVKDLIENGADVNASDSDGRTPLHHAAENGHAEVVALLIEKGADVNAKDSDGRTPLHHAAENGHDEVVLILLLKGADVNAKDSDGRTPLHHAAENGHKRVVLVLILAGADVNTSDSDGRTPLDLAREHGNEEVVKALEKQ
notes: One subunit of a designed homodimer (C2) built from an idealized ankyrin repeat protein; also called ank1C2_G3; ANK1C2-G3
As to B1, the binding result in data set [1] was “binds”.

B2: HR04C4_1 (designed binder)
chain: DECEEKARRVAEKVERLKRSGTSEDEIAEEVAREISEVIRTLKESGSSYEVICECVARIVAEIVEALKRSGTSAVEIAKIVARVISEVIRTLKESGSSYEVICECVARIVAEIVEALKRSGTSAAIIALIVALVISEVIRTLKESGSSFEVILECVIRIVLEIIEALKRSGTSEQDVMLIVMAVLLVVLATLQLSGS
notes: One subunit of a designed homotetramer (C4); also called tj10C4_G1
On to B2, for which, in data set [2], the binding result is recorded as “binds”.

B3: ank3C2_1 (designed binder)
chain: SELGKRLIEAAENGNKDRVKDLLENGADVNASDSDGKTPLHLAAENGHAKVVLLLLEQGADPNAKDSDGKTPLHLAAENGHAVVVALLLMHGADPNAKDSDGKTPLHLAAENGHEEVVILLLAMGADPNTSDSDGRTPLDLAREHGNEEVVKVLEDH
notes: One subunit of a designed homodimer (C2) built from an idealized ankyrin repeat protein; It was expressed in E. coli with an N- or C-terminal (His)6 tag
For B3, in data set [1], the binding result is “binds”.

B4: 1na0C3_3 (designed binder)
chain: NLAEKMYKAGNAMYRKGQYTIAIIAYTLALLKDPNNAEAWYNLGNAAYKKGEYDEAIEAYQKALELDPNNAEAWYNLGNAYYKQGDYDEAIEYYQKALELDPNNAEAKQNLGNAKQKQG
notes: One subunit of a designed homotrimer (C3) built from a consensus designed tpr protein
As for B4, the binding result in data set [3] is recorded as “binds”.

B5: HR00C3_2 (designed binder)
chain: IEEVVAEMIDILAESSKKSIEELARAADNKTTEKAVAEAIEEIARLATAAIQLIEALAKNLASEEFMARAISAIAELAKKAIEAIYRLADNHTTDTFMARAIAAIANLAVTAILAIAALASNHTTEEFMARAISAIAELAKKAIEAIYRLADNHTTDKFMAAAIEAIALLATLAILAIALLASNHTTEEFMAKAISAIAELAKKAIEAIYRLADNHTSPTYIEKAIEAIEKIARKAIKAIEMLAKNITTEEYKEKAKSAIDEIREKAKEAIKRLEDNRT
notes: One subunit of a designed homotrimer (C3) built from a de novo designed repeat protein
In the case of B5, the binding result in data set [3] is “binds”.
